{"source": "paper PMC3472031", "origin": "cited, not measured here", "key": {"[1]": {"target": "EspFU R475 R475 (fifth 47-residue repeat) (Escherichia coli O157:H7) (UniProt P0DJ88)"}, "[2]": {"target": "EspFU peptide (Escherichia coli) (UniProt P0DJ88)", "assay": "ITC"}, "[3]": {"target": "SOS-E peptide (UniProt Q07889)"}, "[4]": {"target": "SOS-A peptide (UniProt Q07889)"}, "[5]": {"target": "EspFU (Escherichia coli) (UniProt P0DJ88)"}}, "note": "pKd: −log10 of the molar value."}
{"substance": "N-WASPC 193-501 (from UniProt O00401)", "values": [{"measurement": "pKd", "setting": "[1]", "result": 7.46}]}
{"substance": "IRTKS SH3 (from UniProt Q9UHR4)", "values": [{"measurement": "pKd", "setting": "[2]", "result": 6.30}]}
{"substance": "Grb2 (from UniProt P62993)", "values": [{"measurement": "pKd", "setting": "[3]", "result": 5.46}, {"measurement": "pKd", "setting": "[4]", "result": 4.27}]}
{"substance": "N-WASP 193-501 (from UniProt O00401)", "values": [{"measurement": "pKd", "setting": "[5]", "result": 7.46}]}
